Source: patent US8765444 (BOARD OF TRUSTEES OF THE UNIVERSITY OF ILLINOIS, dated 2014)

Legend:
HA-γ134.5 = target: T1, HA-γ134.5 (HSV-1, UniProt P08353 1-263); test: co-immunoprecipitation from transfected 293T cells
T1 sequence: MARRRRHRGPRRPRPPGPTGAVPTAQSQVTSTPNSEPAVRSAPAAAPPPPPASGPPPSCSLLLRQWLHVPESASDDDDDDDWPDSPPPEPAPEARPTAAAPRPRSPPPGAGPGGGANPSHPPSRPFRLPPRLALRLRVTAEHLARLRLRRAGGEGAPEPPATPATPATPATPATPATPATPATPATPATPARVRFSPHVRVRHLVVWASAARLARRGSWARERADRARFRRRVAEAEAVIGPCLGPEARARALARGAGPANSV

[1] = target: T2, TBK1 (as used in Example 6; construct not named) (Homo sapiens (Human), UniProt Q9UHD2 1-729); test: co-immunoprecipitation from transfected 293T cells
T2 construct: also called HA-TBK1 (constructed, probably the one used)
T2 sequence: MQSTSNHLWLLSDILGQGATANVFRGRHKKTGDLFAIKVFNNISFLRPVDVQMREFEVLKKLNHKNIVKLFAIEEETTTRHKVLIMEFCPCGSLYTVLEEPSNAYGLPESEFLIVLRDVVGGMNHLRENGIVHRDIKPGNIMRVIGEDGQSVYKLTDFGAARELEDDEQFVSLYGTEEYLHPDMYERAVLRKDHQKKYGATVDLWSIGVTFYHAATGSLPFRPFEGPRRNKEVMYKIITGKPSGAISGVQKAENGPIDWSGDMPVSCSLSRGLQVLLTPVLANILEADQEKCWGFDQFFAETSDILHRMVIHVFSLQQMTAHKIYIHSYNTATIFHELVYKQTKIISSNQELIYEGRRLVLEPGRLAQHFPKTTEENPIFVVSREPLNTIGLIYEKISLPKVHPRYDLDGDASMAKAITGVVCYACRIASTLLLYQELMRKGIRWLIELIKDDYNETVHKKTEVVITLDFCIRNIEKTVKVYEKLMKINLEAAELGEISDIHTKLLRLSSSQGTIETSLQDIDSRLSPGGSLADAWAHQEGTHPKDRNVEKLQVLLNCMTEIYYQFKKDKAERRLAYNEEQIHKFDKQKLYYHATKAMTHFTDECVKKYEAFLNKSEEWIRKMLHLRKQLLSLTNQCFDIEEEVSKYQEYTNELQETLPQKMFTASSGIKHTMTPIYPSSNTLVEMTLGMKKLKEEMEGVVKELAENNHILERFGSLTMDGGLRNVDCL

| Binder | binding result (HA-γ134.5) | binding result [1] |
| --- | --- | --- |
| FLAG-dN200, a truncated form of Ebola VP35 (other, also called control protein dN200) NNLNSTTSLTEENFGKPDISAKDLRNIMYDHLPGFGTAFHQLVQVICKLGKDSNSLDIIHAEFQASLAEGDSPQCALIQITKRVPIFQDAAPPVIHIRSRGDIPRACQKSLRPVPPSPKIDRGWVCVFQLQDGKTLGLKI | no binding |  |
| FLAG-γ134.5 Δ106 (other, the printed limits overlap with the neighbouring deletions, so the exact junction is uncertain) MARRRRHRGPRRPRPPGPTGAVPTAQSQVTSTPNSEPAVRSAPAAAPPPPPASGPPPSCSLLLRQWLHVPEPPGAGPGGGANPSHPPSRPFRLPPRLALRLRVTAEHLARLRLRRAGGEGAPEPPATPATPATPATPATPATPATPATPATPATPARVRFSPHVRVRHLVVWASAARLARRGSWARERADRARFRRRVAEAEAVIGPCLGPEARARALARGAGPANSV |  | no binding |
